Key:
Experiment in all cases: cell-based or functional assay
[1] = molecular target: HIV-1 Env of pseudovirus 62357_14_D3_4589 (HIV-1)
[2] = molecular target: HIV-1 Env of pseudovirus CNE5 (HIV-1)
[3] = molecular target: HIV-1 Env of pseudovirus Ce0682_E4 (HIV-1)
[4] = molecular target: HIV-1 Env of pseudovirus BJOX025000.01.1 (HIV-1)
[5] = molecular target: HIV-1 Env of pseudovirus CNE20 (HIV-1)
[6] = molecular target: HIV-1 Env of pseudovirus SC422661.8 (HIV-1)
[7] = molecular target: HIV-1 Env of pseudovirus ZM233M.PB6 (HIV-1)
[8] = molecular target: HIV-1 Env of pseudovirus Ce1176_A3 (HIV-1)
[9] = molecular target: HIV-1 Env of pseudovirus Du172.17 (HIV-1)
[10] = molecular target: HIV-1 Env of pseudovirus Ce1086_B2 (HIV-1)
[11] = molecular target: HIV-1 Env of pseudovirus Ce704809221_1B3 (HIV-1)
[12] = molecular target: HIV-1 Env of pseudovirus SC05_8C11_2344 (HIV-1)
[13] = molecular target: HIV-1 Env of pseudovirus ZM53M.PB12 (HIV-1)
[14] = molecular target: HIV-1 Env of pseudovirus A07412M1.vrc12 (HIV-1)
[15] = molecular target: HIV-1 Env of pseudovirus BJOX028000.10.3 (HIV-1)
[16] = molecular target: HIV-1 Env of pseudovirus 1054_07_TC4_1499 (HIV-1)
[17] = molecular target: HIV-1 Env of pseudovirus 6480.v4.c25 (HIV-1)
[18] = molecular target: HIV-1 Env of pseudovirus 6041.v3.c23 (HIV-1)
[19] = molecular target: HIV-1 Env of pseudovirus CNE58 (HIV-1)
[20] = molecular target: HIV-1 Env of pseudovirus 231965.c01 (HIV-1)
[21] = molecular target: HIV-1 Env of pseudovirus 6952.v1.c20 (HIV-1)
[22] = molecular target: HIV-1 Env of pseudovirus HIV-16055-2.3 (HIV-1)
[23] = molecular target: HIV-1 Env of pseudovirus X1254_c3 (HIV-1)
[24] = molecular target: HIV-1 Env of pseudovirus 3817.v2.c59 (HIV-1)
[25] = molecular target: HIV-1 Env of pseudovirus CNE30 (HIV-1)
[26] = molecular target: HIV-1 Env of pseudovirus X1632_S2_B10 (HIV-1)
[27] = molecular target: HIV-1 Env of pseudovirus Ce0393_C3 (HIV-1)
[28] = molecular target: HIV-1 Env of pseudovirus 0260.v5.c36 (HIV-1)
[29] = molecular target: HIV-1 Env of pseudovirus X2131_C1_B5 (HIV-1)
[30] = molecular target: HIV-1 Env of pseudovirus C3347.c11 (HIV-1)
[31] = molecular target: HIV-1 Env of pseudovirus 235-47 (HIV-1)
[32] = molecular target: HIV-1 Env of pseudovirus ZM197M.PB7 (HIV-1)
[33] = molecular target: HIV-1 Env of pseudovirus X2088_c9 (HIV-1)
[34] = molecular target: HIV-1 Env of pseudovirus 6540.v4.c1 (HIV-1)
[35] = molecular target: HIV-1 Env of pseudovirus ZM214M.PL15 (HIV-1)
[36] = molecular target: HIV-1 Env of pseudovirus ZM109F.PB4 (HIV-1)

## PGT121 (antibody)
[1]
  IC50: 2.6 µg/mL
  IC80: > 50 µg/mL
[2]
  IC50: > 50 µg/mL
  IC80: > 50 µg/mL
[3]
  IC50: > 50 µg/mL
  IC80: > 50 µg/mL
[4]
  IC50: > 50 µg/mL
  IC80: > 50 µg/mL
[5]
  IC50: < 0.001 µg/mL
  IC80: 0.002 µg/mL
[6]
  IC50: 0.038 µg/mL
  IC80: 0.177 µg/mL
[7]
  IC50: 3.69 µg/mL
[8]
  IC50: 0.013 µg/mL
  IC80: 0.035 µg/mL
[9]
  IC50: 0.033 µg/mL
  IC80: 0.257 µg/mL
[10]
  IC50: < 0.001 µg/mL
  IC80: < 0.001 µg/mL
[11]
  IC50: 0.025 µg/mL
  IC80: 0.126 µg/mL
[12]
  IC50: 0.019 µg/mL
  IC80: 0.071 µg/mL
[13]
  IC50: < 0.001 µg/mL
  IC80: 0.004 µg/mL
[14]
  IC50: 0.009 µg/mL
  IC80: 0.075 µg/mL
[15]
  IC50: > 50 µg/mL
  IC80: > 50 µg/mL
[16]
  IC50: 0.064 µg/mL
  IC80: 0.304 µg/mL
[17]
  IC50: < 0.001 µg/mL
  IC80: 0.004 µg/mL
[18]
  IC50: > 50 µg/mL
  IC80: > 50 µg/mL
[19]
  IC50: > 50 µg/mL
  IC80: > 50 µg/mL
[20]
  IC50: > 50 µg/mL
  IC80: > 50 µg/mL
[21]
  IC50: 0.056 µg/mL
  IC80: 0.42 µg/mL
[22]
  IC50: 0.153 µg/mL
  IC80: 4.8 µg/mL
[23]
  IC50: 0.014 µg/mL
  IC80: 0.08 µg/mL
[24]
  IC50: 18.9 µg/mL
  IC80: > 50 µg/mL
[25]
  IC50: 0.078 µg/mL
  IC80: 0.291 µg/mL
[26]
  IC50: > 50 µg/mL
  IC80: > 50 µg/mL
[27]
  IC50: > 50 µg/mL
  IC80: > 50 µg/mL
[28]
  IC50: 0.053 µg/mL
  IC80: 0.197 µg/mL
[29]
  IC50: 0.004 µg/mL
  IC80: 0.023 µg/mL
[30]
  IC50: > 50 µg/mL
  IC80: > 50 µg/mL
[31]
  IC50: 0.137 µg/mL
  IC80: 0.727 µg/mL
[32]
  IC50: > 50 µg/mL
  IC80: > 50 µg/mL
[33]
  IC50: 0.003 µg/mL
  IC80: 0.013 µg/mL
[34]
  IC50: > 50 µg/mL
  IC80: > 50 µg/mL
[35]
  IC50: 0.46 µg/mL
  IC80: 2.04 µg/mL
[36]
  IC50: 8.64 µg/mL
  IC80: > 50 µg/mL

— patent US20230002480A1
